For this assay, the target named is T1, human Fibrin (human fibrinogen clotted on the plate with thrombin and CaCl2) (human, UniProt P02671 36-629; P02675 45-491; P02679 27-437).
T1 construct: Made in the ELISA wells from the human fibrinogen by thrombin and CaCl2, 1 hour at 37 C, then dried
T1 sequence (looked up) 1: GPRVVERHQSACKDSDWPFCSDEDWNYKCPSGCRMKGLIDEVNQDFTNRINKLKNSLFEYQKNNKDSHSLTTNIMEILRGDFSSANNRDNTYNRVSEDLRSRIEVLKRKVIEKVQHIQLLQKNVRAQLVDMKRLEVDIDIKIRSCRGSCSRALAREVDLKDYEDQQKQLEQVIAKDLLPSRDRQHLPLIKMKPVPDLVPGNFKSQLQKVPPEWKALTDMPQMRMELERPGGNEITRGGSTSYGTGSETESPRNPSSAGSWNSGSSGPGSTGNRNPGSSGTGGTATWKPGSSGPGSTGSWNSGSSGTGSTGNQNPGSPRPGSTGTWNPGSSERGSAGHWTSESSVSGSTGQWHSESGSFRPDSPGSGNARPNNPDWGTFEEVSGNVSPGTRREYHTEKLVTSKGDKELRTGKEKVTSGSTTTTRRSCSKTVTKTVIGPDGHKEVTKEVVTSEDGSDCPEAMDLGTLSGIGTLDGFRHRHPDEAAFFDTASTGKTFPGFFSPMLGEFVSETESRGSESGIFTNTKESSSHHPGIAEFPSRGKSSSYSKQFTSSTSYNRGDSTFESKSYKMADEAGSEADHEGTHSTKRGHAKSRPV
T1 sequence (looked up) 2: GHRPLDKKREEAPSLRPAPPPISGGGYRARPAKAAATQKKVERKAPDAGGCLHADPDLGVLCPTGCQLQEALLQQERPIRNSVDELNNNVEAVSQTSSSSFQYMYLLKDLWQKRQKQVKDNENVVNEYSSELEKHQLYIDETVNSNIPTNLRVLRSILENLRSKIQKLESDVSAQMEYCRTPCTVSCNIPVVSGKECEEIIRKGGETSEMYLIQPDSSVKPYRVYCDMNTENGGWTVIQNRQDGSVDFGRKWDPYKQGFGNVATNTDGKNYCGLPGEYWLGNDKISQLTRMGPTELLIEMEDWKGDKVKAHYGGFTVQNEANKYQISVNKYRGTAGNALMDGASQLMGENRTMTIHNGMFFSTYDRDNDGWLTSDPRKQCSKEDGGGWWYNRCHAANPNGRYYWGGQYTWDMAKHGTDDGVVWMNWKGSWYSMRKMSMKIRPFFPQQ
T1 sequence (looked up) 3: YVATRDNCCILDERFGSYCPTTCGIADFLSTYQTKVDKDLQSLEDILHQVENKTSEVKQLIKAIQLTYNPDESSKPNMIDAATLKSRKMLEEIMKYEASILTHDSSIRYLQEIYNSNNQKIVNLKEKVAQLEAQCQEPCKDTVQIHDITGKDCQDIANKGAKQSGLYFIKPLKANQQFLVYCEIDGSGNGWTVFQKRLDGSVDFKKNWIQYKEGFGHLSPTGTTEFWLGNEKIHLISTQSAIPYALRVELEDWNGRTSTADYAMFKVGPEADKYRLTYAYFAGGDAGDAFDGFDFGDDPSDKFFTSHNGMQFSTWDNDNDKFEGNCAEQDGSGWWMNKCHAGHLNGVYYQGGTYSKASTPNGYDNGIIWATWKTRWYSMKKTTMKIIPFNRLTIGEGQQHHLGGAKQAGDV
The assay is described as follows: ELISA on plate-coated human fibrin (fibrinogen clotted in the well with thrombin/CaCl2), antibody titrated, A450. Here is the method: The humanized antibodies affinity for fibrinogen, fibrin and P2 peptide were assessed by Enzyme-linked immunosorbent assays (ELISA)s (FIGS. 7-16). ELISAs for fibrinogen binding were performed using plasminogen-depleted human Fibrinogen (EMD/Calbiochem). […] IgG1-depleted Fibrinogen (FGN) in 20 mM HEPES/Saline buffer was added to each well of half of a 96-well Nunc Maxisorp™ ELISA plate. The ELISAs for fibrin binding were prepared by adding 50 mL of 20 mM HEPES/Saline buffer containing 14 mM CaCl₂, and 2 units thrombin to each well of the second half of the Nunc Maxisorp™ ELISA plate. 50 mL of 20 mg fibrinogen in 20 mM HEPES/Saline buffer were then added to a total volume of 100 mL. Plates were placed in a 37° C. incubator for 1 hour to allow fibrinogen to clot into fibrin and subsequently placed overnight into a plate dryer at 37° C. overnight. The ELISAs for P2 peptide were prepared by addition of […] of 30 mM P2 peptide in 20 mM HEPES/Saline buffer to each well of a 96-well Nunc Maxisorp™ ELISA plate. Plates were transferred to the plate dryer and dried overnight at 37° C. All ELISAs were preformed using Nunc MaxiSorp 96-well ELISA plates. Blocking was performed using 100 mL 5% BSA in DPBS are incubated at RT for 1 hour. Plates were washed 5× in DPBS containing 0.05% Tween-20 (EL406 was used for the addition of wash buffer only). […]
For orientation: An ELISA detects its analyte on a solid surface through an enzyme-linked reagent.

A word on the EC50 (read off the curve): it is the concentration that produces a half-maximal response. Read a low EC50 (read off the curve) as higher potency in that assay.

B1: humanized VH4/Vκ1 antibody (antibody, IgG1, V domains shown)
VH: QVQLVQSGAEVKKPGSSVKVSCKASGYTFTSYWIHWVRQAPGQGLEWIGLIDPSDSYTNYNQKFRGRVTITVDTSTSTAYMELSSLRSEDTAVYYCASSDPTGCWGQGTTVTVSS
VL: DIVMTQAAFSNPITPGTPASISCRSSKSLLHSSGITYLSWYLQKPGQSPQLLIYQMSNLASGVPDRFSSSGSGTDFTLRISRVEAEDVGVYYCAQNLELPLTFGQGTKLEIK
notes: Expressed as IgG1; also called VH4/VK1; VH4Vk1
With B1, the “EC50 (read off the curve)” value was approximately 300 nM.
